# Measurements published in the supplement of paper PMC6757056.
# ± gives the standard deviation of the averaged measurements.
# B1: library; a variant is named by its letters at N, in order (parent)
# chain: GCUGUCACCGGUGCUUGGUACGUUAUAUUCAGCCGGUCUGAUGAGUCUNNNNNNAGACGAAACAGC
# Legend:
# (6R,S)-folinic acid [1] = variants of: B1; test: normalized RNA/DNA level without ligand (relative to sTRSVctl = 100) (log10 (% of sTRSVctl)); HEK293T overexpressing SLC46A1; higher = less ribozyme self-cleavage, higher mRNA level; conditions: without (6R,S)-folinic acid; ligand present: no
# In short: (§1)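 Library plasmids carrying ribozyme switches linked to mCherry, or to eGFP in some ligand experiments, were transfected into HEK293T at 4 µg per 6-well well, with any ligand added 1 h earlier. Seventy-two hours on, total RNA was extracted with EDTA and reverse-transcribed, amplified, barcoded and sequenced. RNA level was RNA over DNA reads normalized to a spiked-in non-cleaving sequence or to the top sequences, then scaled and log-transformed. The top set was 25 sequences, the transform was ×100 and log10, and sequences needed ≥100 DNA reads.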
# (6R,S)-folinic acid [2] = variants of: B1; test: normalized RNA/DNA level with ligand (relative to sTRSVctl = 100) (log10 (% of sTRSVctl)); HEK293T overexpressing SLC46A1; ligand concentration (+) RNA-Seq: 6 mM; higher = less ribozyme self-cleavage, higher mRNA level; conditions: with (6R,S)-folinic acid; ligand present: yes
# In short: as §1
Variant,"normalized RNA/DNA level without ligand (log10) ((6R,S)-folinic acid [1])","normalized RNA/DNA level with ligand (log10) ((6R,S)-folinic acid [2])"
GUGUAU,1.962 ± 0.0048,2.01 ± 0.022
UGAACC,2.011 ± 0.0035,2 ± 0.031
CCUGGC,2.051 ± 0.013,2.05 ± 0.045
AGCCGA,2.004 ± 0.0033,2.02 ± 0.025
AUUUCG,1.961 ± 0.016,2 ± 0.026
CAGAGU,1.996 ± 0.0082,2.02 ± 0.035
CCGCGG,2.031 ± 0.0025,2.0168 ± 0.0019
ACCGCA,2.009 ± 0.018,2.01 ± 0.024
AUUCAU,2 ± 0.026,2.0232 ± 0.0017
CACACC,2.061 ± 0.0083,2 ± 0.073
AUGUGU,1.83 ± 0.032,1.97 ± 0.047
AUACGA,1.9851 ± 0.0003,2.01 ± 0.043
CGAUGA,2.011 ± 0.0023,2.02 ± 0.078
UAGUCA,1.98 ± 0.021,2.01 ± 0.038
CCAGAA,1.982 ± 0.0051,1.98 ± 0.053
CCGAGA,1.988 ± 0.01,2.011 ± 0.0034
UGCGAA,1.966 ± 0.011,1.97 ± 0.029
GACUAA,1.977 ± 0.008,1.98 ± 0.043
CGUGCC,2.068 ± 0.0025,2.01 ± 0.036
GAAGCC,2.022 ± 0.0083,2.03 ± 0.047
AGUCGC,2.012 ± 0.015,1.98 ± 0.031
AAUUGC,2.006 ± 0.0074,2.01 ± 0.039

Variant,"normalized RNA/DNA level without ligand (log10) ((6R,S)-folinic acid [1])","normalized RNA/DNA level with ligand (log10) ((6R,S)-folinic acid [2])"
CUGCAC,2.037 ± 0.0035,2.015 ± 0.014
AGAGUC,2.059 ± 0.0045,2.02 ± 0.034
AAGCGA,1.95 ± 0.02,2.02 ± 0.048
UGGCCU,2.043 ± 0.014,2.03 ± 0.024
GUCAAA,1.994 ± 0.009,1.99 ± 0.037
AGUACC,2.07 ± 0.0045,2.04 ± 0.044
AGGGUA,1.968 ± 0.019,2.02 ± 0.0085
CUUCAC,2.027 ± 0.0051,1.988 ± 0.011
GUGGGG,1.94 ± 0.026,2.03 ± 0.028
UAUGUC,2.05 ± 0.033,2.01 ± 0.049
UCAUUC,2.067 ± 0.013,2.07 ± 0.021
CCUGUA,2.018 ± 0.012,2.04 ± 0.022
AAGUCU,2.066 ± 0.015,2.0681 ± 0.0013
CGGAAG,1.94 ± 0.021,1.98 ± 0.028
GAAGGA,1.952 ± 0.0097,2.009 ± 0.014
CAGUGU,2.015 ± 0.02,2.03 ± 0.025
GUAACG,1.997 ± 0.0059,2 ± 0.039
UGGCAA,1.97 ± 0.024,2.01 ± 0.033
AGAUUU,2.0581 ± 0.0011,2.04 ± 0.024
UGUCAG,1.771 ± 0.011,2 ± 0.026
AAAGUU,1.972 ± 0.0027,2.01 ± 0.016
UGGGGG,1.8 ± 0.017,2.008 ± 0.018

Variant,"normalized RNA/DNA level without ligand (log10) ((6R,S)-folinic acid [1])","normalized RNA/DNA level with ligand (log10) ((6R,S)-folinic acid [2])"
AGGGGG,1.9815 ± 0.00032,2.05 ± 0.064
AAGCAG,1.925 ± 0.0059,2 ± 0.045
ACUUGA,1.9759 ± 0.0013,2.03 ± 0.041
AGGCGG,2.0398 ± 0.0017,2.044 ± 0.01
AGGAGU,1.934 ± 0.0037,2.033 ± 0.014
AGCAUU,2.012 ± 0.0048,2.01 ± 0.028
GUGCAU,1.973 ± 0.0054,2.02 ± 0.051
CUCGUU,2.0737 ± 0.0011,2.0492 ± 0.0012
ACCGUC,2.1 ± 0.03,2.07 ± 0.037
GGGGGA,2.057 ± 0.02,2.05 ± 0.043
CAAAGC,1.992 ± 0.015,2 ± 0.04
UUGUAC,1.9902 ± 0.00038,2.02 ± 0.045
AGGCUU,2.03 ± 0.027,2.04 ± 0.041
AAGGCG,1.9326 ± 0.0006,2.03 ± 0.036
CGAAGC,2.02 ± 0.033,2.04 ± 0.042
CGUCAC,2.032 ± 0.0083,1.99 ± 0.049
GGCCAG,2.037 ± 0.0046,2.016 ± 0.02
CUGCGC,2.06 ± 0.0038,2.009 ± 0.019
UCAGUU,2.008 ± 0.02,2 ± 0.049
CUGUCG,2 ± 0.031,2.06 ± 0.065
UGACCU,2.058 ± 0.011,2.06 ± 0.034
